Test results reported in patent US20040223968A1.

What was measured:
Test in all cases: cell-based or functional assay
[1] = biological target: MCP-1RB (monocyte chemoattractant protein-1 receptor B) (human) (UniProt P41597)
[2] = biological target: MIP-1α/RANTES receptor (Homo sapiens (Human)) (UniProt P32246)
[3] = biological target: MCP-1RA (monocyte chemoattractant protein-1 receptor A) (human) (UniProt P41597)
Chain of MCP-1RA (monocyte chemoattractant protein-1 receptor A) (human) (P41597 whole entry): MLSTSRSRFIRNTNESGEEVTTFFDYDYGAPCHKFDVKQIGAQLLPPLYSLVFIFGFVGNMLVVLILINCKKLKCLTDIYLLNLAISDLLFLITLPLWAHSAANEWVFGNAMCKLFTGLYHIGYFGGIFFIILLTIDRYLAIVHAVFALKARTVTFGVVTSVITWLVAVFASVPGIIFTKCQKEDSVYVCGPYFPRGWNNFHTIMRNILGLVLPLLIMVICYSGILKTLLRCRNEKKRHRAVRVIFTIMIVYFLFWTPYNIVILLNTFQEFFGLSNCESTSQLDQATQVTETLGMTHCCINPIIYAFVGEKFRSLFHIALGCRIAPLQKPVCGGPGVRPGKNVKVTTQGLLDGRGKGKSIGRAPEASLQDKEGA

Chain of MCP-1RB (monocyte chemoattractant protein-1 receptor B) (human) (P41597 other isoform, or with tags, fused parts or gaps): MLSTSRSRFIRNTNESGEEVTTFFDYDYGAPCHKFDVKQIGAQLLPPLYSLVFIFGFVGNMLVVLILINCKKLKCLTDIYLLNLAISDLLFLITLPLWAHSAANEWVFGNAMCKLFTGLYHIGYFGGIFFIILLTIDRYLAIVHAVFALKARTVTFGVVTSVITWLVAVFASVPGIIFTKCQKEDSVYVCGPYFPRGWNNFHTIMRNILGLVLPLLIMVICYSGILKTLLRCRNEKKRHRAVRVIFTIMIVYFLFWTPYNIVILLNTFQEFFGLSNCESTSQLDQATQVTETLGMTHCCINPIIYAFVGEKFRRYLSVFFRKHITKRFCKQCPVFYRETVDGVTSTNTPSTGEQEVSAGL
Chain of MIP-1α/RANTES receptor (Homo sapiens (Human)) (P32246 whole entry): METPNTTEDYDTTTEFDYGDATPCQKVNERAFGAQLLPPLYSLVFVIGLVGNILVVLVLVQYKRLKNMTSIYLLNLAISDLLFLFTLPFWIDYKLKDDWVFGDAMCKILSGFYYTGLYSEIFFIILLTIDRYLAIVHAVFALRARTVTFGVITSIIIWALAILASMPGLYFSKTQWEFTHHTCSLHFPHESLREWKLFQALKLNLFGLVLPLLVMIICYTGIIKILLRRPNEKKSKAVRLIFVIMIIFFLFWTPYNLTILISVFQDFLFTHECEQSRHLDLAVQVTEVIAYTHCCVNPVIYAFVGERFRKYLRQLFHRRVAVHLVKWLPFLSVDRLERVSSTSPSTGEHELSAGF

Row | Substance | IC50(nM), Inhibition of Adenylyl Cyclase, 293 cells stably expressing MCP-1RB [1] [nM] | IC50(nM), Inhibition of Adenylyl Cyclase, 293 cells stably expressing the MIP-1α/RANTES receptor [2] [nM] | other results
1 | Gro-α (from UniProt P09341 35-107) (ligand) | > 1000 | > 1000 | 
2 | IL-8 (interleukin-8) (from UniProt P10145 28-99) (ligand) | > 1000 |  | 
3 | RANTES (from UniProt P13501 24-91) (ligand) | > 1000 |  | 

Now from value to substance, other results behind:

Row | IC50(nM), Inhibition of Adenylyl Cyclase, 293 cells stably expressing MCP-1RB [1] [nM] | IC50(nM), Inhibition of Adenylyl Cyclase, 293 cells stably expressing the MIP-1α/RANTES receptor [2] [nM] | Substance | other results
4 | 0.09 | 820 | MCP-1 (monocyte chemoattractant protein-1) (from UniProt P13500 24-99) (ligand) | EC50, 45Ca efflux in Xenopus oocytes injected with receptor cRNA [3]: 15 nM; EC50, 45Ca efflux in Xenopus oocytes injected with receptor cRNA [1]: 15 nM; EC50, intracellular calcium mobilization (indo-1) in stably transfected MCP-1RB/293 cells [1]: 3.4 nM; Selectivity (MCP-1RB against the MIP-1α/RANTES receptor, from the adenylyl cyclase IC50s) [1]: > 9000 fold; block of the forskolin-induced increase of cAMP in MCP-1RB-transfected 293 cells [1]: 78%; reduction of basal cAMP accumulation in MCP-1RB-transfected 293 cells [1]: 55%
5 | > 1000 |  | MIP-1α (from UniProt P10147 27-92) (ligand) | 
6 | > 1000 |  | MIP-1β (from UniProt P13236 24-92) (ligand) | 
